Laboratory results published in PMC2810376 (The EMBO Journal, 2010).
One block for each binder: values may come before it.

What was measured:
[1] = molecular target: Rpb2, second largest subunit of RNA polymerase II (S. cerevisiae, UniProt P08518 1-1224); experiment: cross-linking
[2] = molecular target: Rpb1, subunit of RNA polymerase II (S. cerevisiae, UniProt P04050 1-1733); experiment: cross-linking
Chain of Rpb1, subunit of RNA polymerase II (P04050 whole entry): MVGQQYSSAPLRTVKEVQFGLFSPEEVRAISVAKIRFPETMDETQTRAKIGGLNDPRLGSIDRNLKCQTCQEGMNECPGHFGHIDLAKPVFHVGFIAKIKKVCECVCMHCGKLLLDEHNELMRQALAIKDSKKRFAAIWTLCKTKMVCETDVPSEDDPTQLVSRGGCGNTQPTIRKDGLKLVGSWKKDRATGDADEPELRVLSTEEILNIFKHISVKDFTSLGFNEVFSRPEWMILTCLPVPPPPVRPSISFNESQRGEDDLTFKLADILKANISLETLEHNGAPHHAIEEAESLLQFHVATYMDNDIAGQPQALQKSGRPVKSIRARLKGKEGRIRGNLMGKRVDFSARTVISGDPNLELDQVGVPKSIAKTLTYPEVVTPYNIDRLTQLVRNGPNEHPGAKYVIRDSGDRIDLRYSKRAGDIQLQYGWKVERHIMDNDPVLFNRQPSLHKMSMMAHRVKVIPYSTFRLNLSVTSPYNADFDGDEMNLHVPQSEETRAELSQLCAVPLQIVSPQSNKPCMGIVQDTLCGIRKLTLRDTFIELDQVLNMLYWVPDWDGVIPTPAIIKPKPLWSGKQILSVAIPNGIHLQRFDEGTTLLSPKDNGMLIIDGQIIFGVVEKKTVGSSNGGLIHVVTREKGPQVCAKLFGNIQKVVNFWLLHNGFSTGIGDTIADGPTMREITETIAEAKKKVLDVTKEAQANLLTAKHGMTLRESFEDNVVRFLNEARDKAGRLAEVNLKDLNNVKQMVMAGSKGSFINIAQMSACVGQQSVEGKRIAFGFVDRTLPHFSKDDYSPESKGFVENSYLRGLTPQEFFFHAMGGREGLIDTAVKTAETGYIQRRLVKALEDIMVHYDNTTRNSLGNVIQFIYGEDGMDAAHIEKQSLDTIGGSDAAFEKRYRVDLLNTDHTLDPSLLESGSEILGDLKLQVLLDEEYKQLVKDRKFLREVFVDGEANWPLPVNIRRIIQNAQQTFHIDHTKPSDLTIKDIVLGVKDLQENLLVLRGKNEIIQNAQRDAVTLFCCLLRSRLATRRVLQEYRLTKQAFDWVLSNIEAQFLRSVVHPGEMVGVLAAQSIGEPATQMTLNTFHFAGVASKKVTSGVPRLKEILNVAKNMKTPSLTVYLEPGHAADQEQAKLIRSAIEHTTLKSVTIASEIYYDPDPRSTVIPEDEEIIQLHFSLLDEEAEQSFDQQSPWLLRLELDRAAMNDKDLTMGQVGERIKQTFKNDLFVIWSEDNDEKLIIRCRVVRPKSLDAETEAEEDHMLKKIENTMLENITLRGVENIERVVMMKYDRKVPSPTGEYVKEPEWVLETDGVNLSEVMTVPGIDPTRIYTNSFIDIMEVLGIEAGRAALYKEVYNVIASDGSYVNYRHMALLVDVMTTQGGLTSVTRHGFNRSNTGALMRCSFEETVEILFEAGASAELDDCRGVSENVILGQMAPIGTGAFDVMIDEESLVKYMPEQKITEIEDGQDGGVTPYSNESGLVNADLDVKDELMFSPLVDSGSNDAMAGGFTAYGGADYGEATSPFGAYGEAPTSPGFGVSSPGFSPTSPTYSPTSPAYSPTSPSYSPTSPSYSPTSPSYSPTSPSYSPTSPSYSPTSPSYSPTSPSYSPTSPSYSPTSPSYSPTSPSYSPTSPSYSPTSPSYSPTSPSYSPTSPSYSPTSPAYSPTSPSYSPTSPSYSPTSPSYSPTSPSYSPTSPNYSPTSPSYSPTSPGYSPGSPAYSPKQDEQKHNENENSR

Chain of Rpb2, second largest subunit of RNA polymerase II (P08518 whole entry): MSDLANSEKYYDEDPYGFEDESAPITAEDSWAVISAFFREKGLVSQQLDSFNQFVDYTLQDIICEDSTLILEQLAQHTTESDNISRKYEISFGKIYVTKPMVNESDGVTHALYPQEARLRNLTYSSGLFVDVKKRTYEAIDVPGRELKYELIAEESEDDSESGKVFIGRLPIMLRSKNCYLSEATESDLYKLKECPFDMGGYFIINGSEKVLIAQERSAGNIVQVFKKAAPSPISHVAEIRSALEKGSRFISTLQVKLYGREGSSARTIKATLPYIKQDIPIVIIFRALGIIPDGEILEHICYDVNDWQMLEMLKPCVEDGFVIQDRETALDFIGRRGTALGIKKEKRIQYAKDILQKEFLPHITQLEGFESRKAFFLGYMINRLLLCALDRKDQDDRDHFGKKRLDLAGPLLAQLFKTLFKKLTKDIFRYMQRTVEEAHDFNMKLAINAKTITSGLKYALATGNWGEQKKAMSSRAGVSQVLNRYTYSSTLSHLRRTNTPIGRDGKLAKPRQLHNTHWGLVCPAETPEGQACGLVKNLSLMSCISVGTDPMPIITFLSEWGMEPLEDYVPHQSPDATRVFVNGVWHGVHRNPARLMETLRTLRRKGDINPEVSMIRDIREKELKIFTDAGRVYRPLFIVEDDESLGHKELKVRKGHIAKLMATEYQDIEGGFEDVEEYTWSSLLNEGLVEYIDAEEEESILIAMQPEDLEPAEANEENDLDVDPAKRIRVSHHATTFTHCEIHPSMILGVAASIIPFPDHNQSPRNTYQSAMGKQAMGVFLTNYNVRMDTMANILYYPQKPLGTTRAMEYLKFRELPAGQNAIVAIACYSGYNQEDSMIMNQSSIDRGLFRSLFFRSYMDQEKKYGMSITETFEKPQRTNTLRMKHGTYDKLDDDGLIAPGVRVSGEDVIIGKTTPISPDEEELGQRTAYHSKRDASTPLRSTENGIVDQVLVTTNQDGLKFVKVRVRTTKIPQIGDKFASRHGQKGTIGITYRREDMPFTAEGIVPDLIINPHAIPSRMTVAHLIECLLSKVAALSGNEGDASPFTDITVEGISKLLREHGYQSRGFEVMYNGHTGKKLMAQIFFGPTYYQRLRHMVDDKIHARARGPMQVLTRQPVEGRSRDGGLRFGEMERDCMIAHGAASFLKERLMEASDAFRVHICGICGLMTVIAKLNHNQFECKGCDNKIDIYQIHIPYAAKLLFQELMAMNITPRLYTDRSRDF

binding result [1]: binds
B1: Tfg2, subunit of yeast TFIIF, with a C-terminal TAP tag (natural protein, S. cerevisiae, UniProt P41896 1-400, looked up)
chain: MSSGSAGAPALSNNSTNSVAKEKSGNISGDEYLSQEEEVFDGNDIENNETKVYEESLDLDLERSNRQVWLVRLPMFLAEKWRDRNNLHGQELGKIRINKDGSKITLLLNENDNDSIPHEYDLELTKKVVENEYVFTEQNLKKYQQRKKELEADPEKQRQAYLKKQEREEELKKKQQQQKRRNNRKKFNHRVMTDRDGRDRYIPYVKTIPKKTAIVGTVCHECQVMPSMNDPNYHKIVEQRRNIVKLNNKERITTLDETVGVTMSHTGMSMRSDNSNFLKVGREKAKSNIKSIRMPKKEILDYLFKLFDEYDYWSLKGLKERTRQPEAHLKECLDKVATLVKKGPYAFKYTLRPEYKKLKEEERKATLGELADEQTGSAGDNAQGDAEADLEDEIEMEDVV

binding result [1]: binds | binding result [2]: binds
B2: Tfg1, subunit of yeast TFIIF (natural protein, S. cerevisiae, UniProt P41895 1-735, looked up)
chain: MSRRNPPGSRNGGGPTNASPFIKRDRMRRNFLRMRMGQNGSNSSSPGVPNGDNSRGSLVKKDDPEYAEEREKMLLQIGVEADAGRSNVKVKDEDPNEYNEFPLRAIPKEDLENMRTHLLKFQSKKKINPVTDFHLPVRLHRKDTRNLQFQLTRAEIVQRQKEISEYKKKAEQERSTPNSGGMNKSGTVSLNNTVKDGSQTPTVDSVTKDNTANGVNSSIPTVTGSSVPPASPTTVSAVESNGLSNGSTSAANGLDGNASTANLANGRPLVTKLEDAGPAEDPTKVGMVKYDGKEVTNEPEFEEGTMDPLADVAPDGGGRAKRGNLRRKTRQLKVLDENAKKLRFEEFYPWVMEDFDGYNTWVGSYEAGNSDSYVLLSVEDDGSFTMIPADKVYKFTARNKYATLTIDEAEKRMDKKSGEVPRWLMKHLDNIGTTTTRYDRTRRKLKAVADQQAMDEDDRDDNSEVELDYDEEFADDEEAPIIDGNEQENKESEQRIKKEMLQANAMGLRDEEAPSENEEDELFGEKKIDEDGERIKKALQKTELAALYSSDENEINPYLSESDIENKENESPVKKEEDSDTLSKSKRSSPKKQQKKATNAHVHKEPTLRVKSIKNCVIILKGDKKILKSFPEGEWNPQTTKAVDSSNNASNTVPSPIKQEEGLNSTVAEREETPAPTITEKDIIEAIGDGKVNIKEFGKFIRRKYPGAENKKLMFAIVKKLCRKVGNDHMELKKE
